Test results published in PMC11480441, “Structure of tetrameric forms of the serotonin-gated 5-HT3A receptor ion channel” (The EMBO Journal, 2024).
“And” between values parts separate entries of the source, which are not always exact repeats. Equal values may be shown once.

Columns and labels:
[1] = biological target: the molecule itself; assay: native gel or EMSA; blue native PAGE, 5-20% gradient gel, 4 °C; 10 ug solubilised 5-HT3AR incubated 30 min with 0 to 10 mM SDS; BSA oligomers as size markers
[2] = biological target: the molecule itself; assay: cryo-EM structure; single-particle cryo-EM of purified 5-HT3AR in saposin lipoprotein (Salipro) with brain polar lipids, 25 mM HEPES, 125 mM NaCl, pH 7.4; apo, with serotonin (uncaged RuBi-5-HT, 200 uM), and with 100 uM 5-HT + 2 mM CaCl2; 2D and 3D classification without imposed symmetry

B1: murine wild-type serotonin 5-HT3A receptor (receptor, mouse (murine), UniProt P23979 24-489, looked up)
chain: SRRRATQARDTTQPALLRLSDHLLANYKKGVRPVRDWRKPTTVSIDVIMYAILNVDEKNQVLTTYIWYRQYWTDEFLQWTPEDFDNVTKLSIPTDSIWVPDILINEFVDVGKSPNIPYVYVHHRGEVQNYKPLQLVTACSLDIYNFPFDVQNCSLTFTSWLHTIQDINITLWRSPEEVRSDKSIFINQGEWELLEVFPQFKEFSIDISNSYAEMKFYVIIRRRPLFYAVSLLLPSIFLMVVDIVGFCLPPDSGERVSFKITLLLGYSVFLIIVSDTLPATAIGTPLIGVYFVVCMALLVISLAETIFIVRLVHKQDLQRPVPDWLRHLVLDRIAWILCLGEQPMAHRPPATFQANKTDDCSGSDLLPAMGNHCSHVGGPQDLEKTPRGRGSPLPPPREASLAVRGLLQELSSIRHFLEKRDEMREVARDWLRVGYVLDRLLFRIYLLAVLAYSITLVTLWSIWHYS
modifications: densities resembling N-linked glycosylation at N82, N148 and N164
notes: 5-HT3A receptor subunit, mouse, wild type, full length; The same subunit is found as a pentamer and as a tetramer (4 or 5 copies); The intracellular domain is not modelled in the tetramer structures; also called 5-HT3R; 5-HT3AR-Salipro; source: purified (C12E9 solubilisation, Streptactin, SEC) and reconstituted in saposins with porcine brain polar lipids; also unpurified in cell-derived plasma …
- stoichiometry N [1]: 3 and 2
- stoichiometry N [2]: 4 and 5
